Results published in patent publication US20170240604A1 (Harvard, published 2017).
Values belong to the binder of their own block, whether it stands above or below them. No end group written: not given here. fluorescein maleimide = fluorescein maleimide (label on cysteine)

Key:
[1] = target: KRas (G12V)·GppNHp (human) (UniProt P01116); assay: fluorescence polarization; FITC-labeled peptide at fixed concentration, KRas(G12V) GppNHp titrated 0.5 to 5000 nM; one-site fit with Hill coefficient
NRas·GppNHp = NRas·GppNHp (UniProt P01111); assay: fluorescence polarization, FITC-225-3 with GppNHp-bound NRas
HRas·GppNHp = HRas·GppNHp (UniProt P01112 1-177, limits assumed); assay: fluorescence polarization, FITC-225-3 with GppNHp-bound HRas
Rap1a (GppNHp-bound) = target: T1, Rap1a (GppNHp-bound) (UniProt P62834 1-167, limits assumed); assay: fluorescence polarization, FITC-225-3 with GppNHp-bound Rap1a; FP, GppNHp-bound Rap1a
T1 construct: also called Rapla (so in the source)
T1 sequence: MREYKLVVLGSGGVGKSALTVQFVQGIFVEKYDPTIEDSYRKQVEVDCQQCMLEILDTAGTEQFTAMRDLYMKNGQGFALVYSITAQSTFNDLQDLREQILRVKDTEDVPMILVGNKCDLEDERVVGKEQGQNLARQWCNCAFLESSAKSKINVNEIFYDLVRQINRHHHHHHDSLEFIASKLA

Rab25 (GppNHp-bound) [2] = target: T2, Rab25 (GppNHp-bound) (UniProt P57735 1-213, limits assumed); assay: fluorescence polarization, FITC-225-3 with GppNHp-bound Rab25; FP, GppNHp-bound Rab25; weak binding given as a number
T2 sequence (looked up): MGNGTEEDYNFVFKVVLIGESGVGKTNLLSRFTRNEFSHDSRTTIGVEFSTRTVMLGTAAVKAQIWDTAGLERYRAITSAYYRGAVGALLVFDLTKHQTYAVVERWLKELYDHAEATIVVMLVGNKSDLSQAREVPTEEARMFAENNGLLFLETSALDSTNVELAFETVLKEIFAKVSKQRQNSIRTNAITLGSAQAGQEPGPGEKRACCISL

RalA = target: T3, RalA (UniProt P11233 1-178, limits assumed); assay: fluorescence polarization; FITC-labeled 225-3 at fixed concentration, protein titrated; one-site specific binding fit with Hill coefficient
T3 construct: also called RalA protein
T3 sequence: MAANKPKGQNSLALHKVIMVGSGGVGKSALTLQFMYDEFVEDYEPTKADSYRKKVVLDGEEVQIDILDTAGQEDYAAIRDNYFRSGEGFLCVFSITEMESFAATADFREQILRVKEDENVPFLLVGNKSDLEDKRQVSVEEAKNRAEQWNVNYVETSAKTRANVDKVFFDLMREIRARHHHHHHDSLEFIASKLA

Rab25 (GppNHp-bound) [3] = target: T2, Rab25 (GppNHp-bound); assay: as above
[4] = target: K-Ras (mutation and nucleotide state not stated where it is used) (UniProt P01116); assay: fluorescence polarization

Binder: GC(fluorescein maleimide)GGPRRPARPRYPGDDASIEDLHEYWARLWNYLYAVA [225-3 R3A]
- Kd [1]: 0.084 µM

Binder: GC(fluorescein maleimide)GGPRRPRRPRYPGDDASIEDLAEYWARLWNYLYAVA [225-3 H18A]
- Kd [1]: 0.17 µM

Binder: GC(fluorescein maleimide)GGPRRPRRPRYPGDDASIEDLHEYWARLWNYLAAVA [225-3 Y29A]
- Kd [1]: 0.2 µM

Further lines, results first:

- Kd [1]: 0.55 µM
Binder: GC(fluorescein maleimide)GGPRRPRRPRYPGDAASIEDLHEYWARLWNYLYAVA [225-3 D11A]

- Kd (NRas·GppNHp): 0.045 µM
- Kd (HRas·GppNHp): 0.045 µM
- Kd (Rap1a (GppNHp-bound)): 3.5 µM
- Kd (Rab25 (GppNHp-bound) [2]): ~10 µM
- Kd (RalA): > 5 µM
- Kd (Rab25 (GppNHp-bound) [3]): > 5 µM
B1: 225-3 (peptide)
peptide: GCGGPRRPRRPRYPGDDASIEDLHEYWARLWNYLYAVA
modifications: also: Cys2 labelled with fluorescein-maleimide or biotin-PEG2-maleimide, or unlabelled, depending on assay, non-covalent head-to-tail homodimer
notes: Recombinant, TEV-cleaved

- Kd [4]: 0.006 µM
Binder: GRRPRRPRCPGDDASIEDLHEYWARLWNYLYAVA (also: FITC label, site not given here) [RDA3]

- Kd [1]: 0.34 µM
Binder: GC(fluorescein maleimide)GGPRRPRRPAYPGDDASIEDLHEYWARLWNYLYAVA [225-3 R6A]
